Laboratory results taken from publication PMC6987093, “Polymerase independent repression of FoxO1 transcription by sequence-specific PARP1 binding to FoxO1 promoter”.

B1: FoxO1-R-B-biotin (dsDNA)
DNA 1: AATGATACGGCGACCACCGAGGATCCTCTTGTGGTCTCTTCACGTTTACGAATTCTCGTATGCCGTCTTCTGCTTG
DNA 2: CAAGCAGAAGACGGCATACGAGAATTCGTAAACGTGAAGAGACCACAAGAGGATCCTCGGTGGTCGCCGTATCATT
B2: FoxO1-R-B (free competitor) (dsDNA)
DNA 1: B1 DNA 1
DNA 2: B1 DNA 2
B3: FoxO1-L-B-biotin (dsDNA)
DNA 1: AATGATACGGCGACCACCGAGGATCCTCACTGTATTCTTGAATTCTCGTATGCCGTCTTCGCTTG
DNA 2: CAAGCGAAGACGGCATACGAGAATTCAAGAATACAGTGAGGATCCTCGGTGGTCGCCGTATCATT

Assays:
[1] = target: T1, PARP1 (UniProt P09874 1-1014); test: pull-down (FREP); EcoRI and BamHI release; EMSA: 0, 2, 5 or 10 ug PARP1 pre-incubated 30 min with 50 ng DNA probe (Thermo EMSA kit), nondenaturing PAGE; buffer, salt, pH and temperature not given in the; conditions: label: 5' biotin
T1 sequence (P09874 whole entry): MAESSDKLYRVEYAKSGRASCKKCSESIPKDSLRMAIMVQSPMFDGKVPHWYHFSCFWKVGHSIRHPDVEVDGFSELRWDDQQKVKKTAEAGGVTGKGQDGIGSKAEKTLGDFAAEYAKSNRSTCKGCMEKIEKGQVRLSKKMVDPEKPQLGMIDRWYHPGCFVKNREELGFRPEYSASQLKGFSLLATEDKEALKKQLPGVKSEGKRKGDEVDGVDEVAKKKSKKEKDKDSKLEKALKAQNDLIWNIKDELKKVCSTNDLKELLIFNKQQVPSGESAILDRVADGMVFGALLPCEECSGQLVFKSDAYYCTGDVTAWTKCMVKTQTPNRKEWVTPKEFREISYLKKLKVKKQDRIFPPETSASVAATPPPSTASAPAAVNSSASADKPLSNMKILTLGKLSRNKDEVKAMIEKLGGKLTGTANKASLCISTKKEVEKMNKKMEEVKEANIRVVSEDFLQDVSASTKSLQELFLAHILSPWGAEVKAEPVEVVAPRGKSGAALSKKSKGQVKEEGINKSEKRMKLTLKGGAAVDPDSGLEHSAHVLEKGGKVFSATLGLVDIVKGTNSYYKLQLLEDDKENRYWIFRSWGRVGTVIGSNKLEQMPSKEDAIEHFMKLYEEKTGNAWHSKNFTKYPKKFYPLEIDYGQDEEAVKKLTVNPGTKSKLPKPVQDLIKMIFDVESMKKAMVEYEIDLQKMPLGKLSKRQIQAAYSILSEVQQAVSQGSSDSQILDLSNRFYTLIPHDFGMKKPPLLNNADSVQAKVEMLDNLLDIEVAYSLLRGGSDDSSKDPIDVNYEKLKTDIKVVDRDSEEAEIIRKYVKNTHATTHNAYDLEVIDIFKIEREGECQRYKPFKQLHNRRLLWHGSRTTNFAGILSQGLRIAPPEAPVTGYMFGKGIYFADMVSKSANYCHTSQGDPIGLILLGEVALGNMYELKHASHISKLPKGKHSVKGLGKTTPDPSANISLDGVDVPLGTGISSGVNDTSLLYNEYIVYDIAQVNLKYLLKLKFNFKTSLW

[2] = target: T1, PARP1; test: competition; 40-fold excess over FoxO1-R-B-biotin in FREP; EMSA: 0, 2, 5 or 10 ug PARP1 pre-incubated 30 min with 50 ng DNA probe (Thermo EMSA kit), nondenaturing PAGE; buffer, salt, pH and temperature not given in the

Binder | binding result [1] | binding result [2]
B1 | binds | –
B2 | – | binds
B3 | binds | –
